Reference: patent US20220064272A1 (TAUC3 BIOLOGICS, published 2022)
Positions count from the first letter of the chain named. “And” between values parts separate entries of the source, which are not always exact repeats. Equal values may be shown once.

B1: Tau01 HCKI (antibody, V domains shown)
VH: LVQLVESGGGLVQPGGSLKLSCAASGFTFNTYAMNWVRQASGKGLEWVGRIRSKSNNYATYYAASVKGRFTISRDDSKSMAYLQMDSLKTEDTAVYYCVGGGDFWGQGTLVTVSS
VL: DIQMTQSPSSLSASVGDRVTITCRASQEISVYLGWYQQKPGKAPKRLIYGAFKLQSGVPSRFSGSRSGTEYTLTISSLQPEDFATYYCLQYVRYPWTFGGGTKVEIK
notes: human IgG4 kappa (HuG4K)
B2: Tau01 HCKG (antibody, V domains shown)
VH: B1 VH
VL: B1 VL with K53T, Y71F
notes: human IgG4 kappa (HuG4K)
B3: Tau01 HCKL (antibody, V domains shown)
VH: B1 VH
VL: B1 VL with G34S, Y36F, P44I
notes: human IgG4 kappa (HuG4K)
B4: Tau01 HCKE (antibody, V domains shown)
VH: B1 VH
VL: B1 VL with Y36F, Y71F
notes: human IgG4 kappa (HuG4K)
B5: Tau01 HCKP (antibody, V domains shown)
VH: B1 VH
VL: B1 VL with Y36F
notes: human IgG4 kappa (HuG4K)
B6: Tau01 HCKJ (antibody, V domains shown)
VH: B1 VH
VL: B1 VL with K53S, Y71F
notes: human IgG4 kappa (HuG4K)
B7: Tau01 HCKN (antibody, V domains shown)
VH: B1 VH
VL: B1 VL with K53T
notes: human IgG4 kappa (HuG4K)
B8: Tau01 HCKO (antibody, V domains shown)
VH: B1 VH
VL: B1 VL with K53S
notes: human IgG4 kappa (HuG4K)
B9: Tau01 HMKM HuG4k (antibody, V domains shown)
VH: B1 VH with G49A
VL: B1 VL with G34S, Y36F, P44I, K53S
notes: human IgG4 kappa (HuG4K)
B10: Tau01 HMKA (antibody, V domains shown)
VH: B1 VH with G49A
VL: B1 VL with Y71F
notes: human IgG4 kappa (HuG4K)
B11: Tau01 HMKB (antibody, V domains shown)
VH: B1 VH with G49A
VL: B1 VL with G34S, Y36F, P44I, K53T, T69S
notes: human IgG4 kappa (HuG4K)
B12: Tau01 HMKC (antibody, V domains shown)
VH: B1 VH with G49A
VL: B1 VL with G34S, Y36F
notes: human IgG4 kappa (HuG4K)
B13: Tau01 HMKI (antibody, V domains shown)
VH: B1 VH with G49A
VL: B1 VL
notes: human IgG4 kappa (HuG4K)
B14: Tau01 HMKJ (antibody, V domains shown)
VH: B1 VH with G49A
VL: B1 VL with K53S, Y71F
notes: human IgG4 kappa (HuG4K)
B15: Tau01 HMKG (antibody, V domains shown)
VH: B1 VH with G49A
VL: B1 VL with K53T, Y71F
notes: human IgG4 kappa (HuG4K)
B16: Tau01 HMKL (antibody, V domains shown)
VH: B1 VH with G49A
VL: B1 VL with G34S, Y36F, P44I
notes: human IgG4 kappa (HuG4K)
B17: HCKH (antibody, V domains shown)
VH: B1 VH
VL: B1 VL with T69S, Y71F
notes: humanized variant, HC with KH; also called Tau01 HCKH HuG4K
B18: HCKF (antibody, V domains shown)
VH: B1 VH
VL: B1 VL with P44I, Y71F
notes: humanized variant, HC with KF; also called Tau01 HCKF HuG4K
B19: HCKD (antibody, V domains shown)
VH: B1 VH
VL: B1 VL with G34S, Y71F
notes: humanized variant, HC with KD; also called Tau01 HCKD HuG4K
B20: Tau01 HNKA (antibody, V domains shown)
VH: B1 VH with L4V
VL: B1 VL with Y71F
notes: human IgG4 kappa (HuG4K)
B21: Tau01 HNKJ (antibody, V domains shown)
VH: B1 VH with L4V
VL: B1 VL with K53S, Y71F
notes: human IgG4 kappa (HuG4K)
B22: Tau01 HNKI (antibody, V domains shown)
VH: B1 VH with L4V
VL: B1 VL
notes: human IgG4 kappa (HuG4K)
B23: Tau01 HNKB (antibody, V domains shown)
VH: B1 VH with L4V
VL: B1 VL with G34S, Y36F, P44I, K53T, T69S
notes: human IgG4 kappa (HuG4K)
B24: Tau01 HNKG (antibody, V domains shown)
VH: B1 VH with L4V
VL: B1 VL with K53T, Y71F
notes: human IgG4 kappa (HuG4K)
B25: Tau01 HBKI (antibody, V domains shown)
VH: B1 VH with L1E, L4V, G49A, A64D, A81V
VL: B1 VL
notes: human IgG4 kappa (HuG4K)
B26: Tau01 HBKE (antibody, V domains shown)
VH: B1 VH with L1E, L4V, G49A, A64D, A81V
VL: B1 VL with Y36F, Y71F
notes: human IgG4 kappa (HuG4K)
B27: Tau01 HBKG (antibody, V domains shown)
VH: B1 VH with L1E, L4V, G49A, A64D, A81V
VL: B1 VL with K53T, Y71F
notes: human IgG4 kappa (HuG4K)
B28: HBKD (antibody, V domains shown)
VH: B1 VH with L1E, L4V, G49A, A64D, A81V
VL: B1 VL with G34S, Y71F
notes: humanized variant, HB with KD; also called Tau01 HBKD HuG4K
B29: HBKH (antibody, V domains shown)
VH: B1 VH with L1E, L4V, G49A, A64D, A81V
VL: B1 VL with T69S, Y71F
notes: humanized variant, HB with KH; also called Tau01 HBKH HuG4K
B30: Tau01 HBKJ (antibody, V domains shown)
VH: B1 VH with L1E, L4V, G49A, A64D, A81V
VL: B1 VL with K53S, Y71F
notes: human IgG4 kappa (HuG4K)
B31: HBKF (antibody, V domains shown)
VH: B1 VH with L1E, L4V, G49A, A64D, A81V
VL: B1 VL with P44I, Y71F
notes: humanized variant, HB with KF; also called Tau01 HBKF HuG4K

Target: T1, TauC3 (C-terminally truncated tau fragment ending at aspartate 421 of htau40) (human, UniProt P10636 1-738)
T1 construct: Generated and purified by Genscript; also called Human TauC3; recombinant TauC3 protein
T1 sequence (P10636 other isoform, or with tags, fused parts or gaps): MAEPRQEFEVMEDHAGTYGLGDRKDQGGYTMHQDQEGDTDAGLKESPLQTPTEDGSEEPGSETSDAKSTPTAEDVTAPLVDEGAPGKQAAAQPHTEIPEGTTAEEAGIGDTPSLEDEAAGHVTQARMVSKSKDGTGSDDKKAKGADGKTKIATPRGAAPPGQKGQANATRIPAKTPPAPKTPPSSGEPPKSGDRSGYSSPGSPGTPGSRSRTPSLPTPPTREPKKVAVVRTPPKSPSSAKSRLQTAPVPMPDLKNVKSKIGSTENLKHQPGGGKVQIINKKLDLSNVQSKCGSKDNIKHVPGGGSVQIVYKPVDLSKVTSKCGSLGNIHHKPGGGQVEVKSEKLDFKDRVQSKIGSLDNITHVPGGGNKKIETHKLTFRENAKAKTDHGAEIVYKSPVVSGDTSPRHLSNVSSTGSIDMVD
Experiment: binding ELISA on coated TauC3, OD650; left table (HC variants)
Method in brief: (§1)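 EC50 values come from antibody concentration-response curves in a binding ELISA on coated TauC3 antigen. The chimeric or humanized IgG4κ antibodies were produced in ExpiCHO cells, and binding was measured as absorbance at 650 nm.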

EC50 | Binder
0.655 nM | B1
0.573 nM | B2
0.835 nM | B3
0.941 nM | B4
0.821 nM | B5
0.766 nM | B6
0.574 nM | B7
0.537 nM | B8

Target: T1, TauC3 (C-terminally truncated tau …)
Experiment: Biacore kinetics, TauC3 amine-coupled on CM5, antibody series, 1:1 global fit
Source text: To determine the affinity of the binding interactions, a biacore kinetic assay was developed which involved immobilizing TauC3 on a CM5 chip via amine coupling and injecting a concentration series of the respective antibody over it.

koff | Binder
0.0181 s⁻¹ | B9

Target: T1, TauC3 (C-terminally truncated tau …)
Experiment: Biacore off-rate ranking, TauC3 amine-coupled on CM5, one antibody concentration; one-phase exponential decay fit
Experimental: (§2) To further evaluate the binding data observed on the Octet, an off-rate ranking experiment was performed on the Biacore 200 instrument. Biacore offers greater selectivity than the Octet and facilitated the immobilization of TauC3 onto a CM5 chip via amine coupling which stabilizes the antigen. This produces higher quality data with stable baselines and good reproducible responses. Once TauC3 is immobilized, one concentration (5 nM) of antibody is added, followed by a dissociation and regeneration step (Section 8.20). The off-rates were fitted using a two-phase decay model (FIG. 25B) or a one phase decay fitting only the second off-rate (FIG. 25A). The candidates were then ranked based on the off-rates obtained using the fits and compared. The data agreed with the Octet results (albeit with a different ranking order), highlighting Tau01 HMKM, HMKO, HMKP, HMKN and HMKE as the humanized variants with the slowest off-rates. The lack of binding of FL Tau to chimeric and a humanized candidate was also confirmed by Biacore by loading the antibody onto a Protein G chip and adding 250 nM FL Tau.

koff | Binder
0.000882 s⁻¹ | B10
0.000264 s⁻¹ | B9
0.00062 s⁻¹ | B11
0.000843 s⁻¹ | B12
0.00181 s⁻¹ | B13
0.00136 s⁻¹ | B14
0.000453 s⁻¹ | B15

Target: T1, TauC3 (C-terminally truncated tau …)
Experiment: binding ELISA on coated TauC3, OD650; right table (HM variants)
Method in brief: as §1

EC50 | Binder
0.641 nM and 0.462 nM | B10
0.573 nM | B2
0.433 nM and 0.718 nM | B12
0.474 nM and 0.458 nM | B13
0.433 nM | B14
0.47 nM | B16
0.515 nM and 0.607 nM | B15

Target: T1, TauC3 (C-terminally truncated tau …)
Experiment: SPR (Biacore) kinetics, TauC3 amine-coupled on CM5, 1:1 global fit
Method in brief: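 Association rate, dissociation rate and Kd were derived by global fitting of surface plasmon resonance (Biacore) data. The fit used a 1:1 model, with a concentration series of each purified antibody flowed over purified antigen amine-coupled to a CM5 chip.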

Kd | koff | kon | Binder
0.11 nM | 0.0181 s⁻¹ | 1.65e+08 M⁻¹ s⁻¹ | B9

Target: T1, TauC3 (C-terminally truncated tau …)
Experiment: binding ELISA on coated TauC3, OD650
Method in brief: as §1

EC50 | Binder
0.741 nM | B1
0.98 nM | B2
1.03 nM | B17
2.25 nM | B18
1.24 nM | B4
2.02 nM | B19
1.01 nM | B6

Target: T1, TauC3 (C-terminally truncated tau …)
Experiment: binding ELISA on coated TauC3, OD650
Remark: another data set of the same source
Method in brief: as §1

EC50 | Binder
1.09 nM | B20
2.56 nM | B21
0.765 nM | B22
0.59 nM | B23
1.08 nM | B24

Target: T1, TauC3 (C-terminally truncated tau …)
Experiment: binding ELISA on coated TauC3, OD650
Remark: another data set of the same source
Method in brief: as §1

EC50 | Binder
0.556 nM | B10
0.412 nM | B11
0.549 nM | B13
0.522 nM | B14
0.543 nM | B15

Target: T1, TauC3 (C-terminally truncated tau …)
Experiment: Biacore off-rate ranking, TauC3 amine-coupled on CM5, one antibody concentration; two-phase decay fit, slow phase
Parameters: unit not given here
Experimental: as §2

Kslow | Binder
0.000815 | B10
0.000553 | B9
0.000138 | B11
0.000711 | B12
0.00179 | B13
0.00123 | B14
0.000384 | B15

Target: T1, TauC3 (C-terminally truncated tau …)
Experiment: binding ELISA on coated TauC3, OD650
Remark: another data set of the same source
Method in brief: as §1

EC50 | Binder
0.705 nM | B25
0.915 nM | B26
0.761 nM | B27
3.04 nM | B28
0.807 nM | B29
0.811 nM | B30
0.786 nM | B31
